Results: patent US20240269252A1, “COMPOSITIONS FOR INDUCING AN IMMUNE RESPONSE” (President and Fellows of Harvard College, priority 2017, published 2024)

Test: Biomolecule release quantification: incorporation efficiency and release kinetics of CpG ODN, GM-CSF and antigen from cryogel vaccines
Format: physicochemical
Details: for encapsulation efficiency: encapsulated in vaccine cryogel by cryo-polymerization

granulocyte-macrophage colony-stimulating factor [GM-CSF]
burst release of the loaded amount (GM-CSF from vaccine cryogel, in vitro): about 8% | encapsulation efficiency: 87% | GM-CSF released (over the first 5 days in vitro): 85%

5′-TCCATGACGTTCCTGACGTT-3′ [CpG-ODN, reference compound]
encapsulation efficiency: 48% | CpG-ODN eluted from the hydrogel (within the first 2 days): 50%
